# Data taken from patent publication US9175313B2, “Three-dimensional structure of isoprene synthase and its use thereof for generating variants” (Danisco US Inc., priority 2009, dated 2015).
# B1: PC: P. alba MEA L494P T536C (+) TEV; pDW113, SEQ ID NO: 93 (protein)
# chain: MEARRSANYEPNSWDYDYLLSSDTDESIEVYKDKAKKLEAEVRREINNEKAEFLTLLELIDNVQRLGLGYRFESDIRGALDRFVSSGGFDAVTKTSLHGTALSFRLLRQHGFEVSQEAFSGFKDQNGNFLENLKEDIKAILSLYEASFLALEGENILDEAKVFAISHLKELSEEKIGKELAEQVNHALELPLHRRTQRLEAVWSIEAYRKKEDANQVLLELAILDYNMIQSVYQRDLRETSRWWRRVGLATKLHFARDRLIESFYWAVGVAFEPQYSDCRNSVAKMFSFVTIIDDIYDVYGTLDELELFTDAVERWDVNAINDLPDYMKLCFLALYNTINEIAYDNLKDKGENILPYLTKAWADLCNAFLQEAKWLYNKSTPTFDDYFGNAWKSSSGPLQLVFAYFAVVQNIKKEEIENLQKYHDTISRPSHIFRLCNDLASASAEIARGETANSVSCYMRTKGISEELATESVMNLIDETWKKMNKEKLGGSPFAKPFVETAINLARQSHCTYHNGDAHTSPDELTRKRVLSVICEPILPFERENLYFQGLEHHHHHH
# modifications: TEV site
# B2: NC: P. alba MEA A453N T536C (+) TEV; pDW105, SEQ ID NO: 77 (protein)
# chain: MEARRSANYEPNSWDYDYLLSSDTDESIEVYKDKAKKLEAEVRREINNEKAEFLTLLELIDNVQRLGLGYRFESDIRGALDRFVSSGGFDAVTKTSLHGTALSFRLLRQHGFEVSQEAFSGFKDQNGNFLENLKEDIKAILSLYEASFLALEGENILDEAKVFAISHLKELSEEKIGKELAEQVNHALELPLHRRTQRLEAVWSIEAYRKKEDANQVLLELAILDYNMIQSVYQRDLRETSRWWRRVGLATKLHFARDRLIESFYWAVGVAFEPQYSDCRNSVAKMFSFVTIIDDIYDVYGTLDELELFTDAVERWDVNAINDLPDYMKLCFLALYNTINEIAYDNLKDKGENILPYLTKAWADLCNAFLQEAKWLYNKSTPTFDDYFGNAWKSSSGPLQLVFAYFAVVQNIKKEEIENLQKYHDTISRPSHIFRLCNDLASASAEIARGETNNSVSCYMRTKGISEELATESVMNLIDETWKKMNKEKLGGSLFAKPFVETAINLARQSHCTYHNGDAHTSPDELTRKRVLSVICEPILPFERENLYFQGLEHHHHHH
# modifications: TEV site
# B3: NSP: P. alba MEA A453N G491S L494P (+) TEV; pDW106, SEQ ID NO: 79 (protein)
# chain: MEARRSANYEPNSWDYDYLLSSDTDESIEVYKDKAKKLEAEVRREINNEKAEFLTLLELIDNVQRLGLGYRFESDIRGALDRFVSSGGFDAVTKTSLHGTALSFRLLRQHGFEVSQEAFSGFKDQNGNFLENLKEDIKAILSLYEASFLALEGENILDEAKVFAISHLKELSEEKIGKELAEQVNHALELPLHRRTQRLEAVWSIEAYRKKEDANQVLLELAILDYNMIQSVYQRDLRETSRWWRRVGLATKLHFARDRLIESFYWAVGVAFEPQYSDCRNSVAKMFSFVTIIDDIYDVYGTLDELELFTDAVERWDVNAINDLPDYMKLCFLALYNTINEIAYDNLKDKGENILPYLTKAWADLCNAFLQEAKWLYNKSTPTFDDYFGNAWKSSSGPLQLVFAYFAVVQNIKKEEIENLQKYHDTISRPSHIFRLCNDLASASAEIARGETNNSVSCYMRTKGISEELATESVMNLIDETWKKMNKEKLSGSPFAKPFVETAINLARQSHCTYHNGDAHTSPDELTRKRVLSVITEPILPFERENLYFQGLEHHHHHH
# modifications: TEV site
# B4: SC: P. alba MEA G491S T536C (+) TEV; pDW111, SEQ ID NO: 89 (protein)
# chain: MEARRSANYEPNSWDYDYLLSSDTDESIEVYKDKAKKLEAEVRREINNEKAEFLTLLELIDNVQRLGLGYRFESDIRGALDRFVSSGGFDAVTKTSLHGTALSFRLLRQHGFEVSQEAFSGFKDQNGNFLENLKEDIKAILSLYEASFLALEGENILDEAKVFAISHLKELSEEKIGKELAEQVNHALELPLHRRTQRLEAVWSIEAYRKKEDANQVLLELAILDYNMIQSVYQRDLRETSRWWRRVGLATKLHFARDRLIESFYWAVGVAFEPQYSDCRNSVAKMFSFVTIIDDIYDVYGTLDELELFTDAVERWDVNAINDLPDYMKLCFLALYNTINEIAYDNLKDKGENILPYLTKAWADLCNAFLQEAKWLYNKSTPTFDDYFGNAWKSSSGPLQLVFAYFAVVQNIKKEEIENLQKYHDTISRPSHIFRLCNDLASASAEIARGETANSVSCYMRTKGISEELATESVMNLIDETWKKMNKEKLSGSLFAKPFVETAINLARQSHCTYHNGDAHTSPDELTRKRVLSVICEPILPFERENLYFQGLEHHHHHH
# modifications: TEV site
# B5: NP: P. alba MEA A453N L494P (+) TEV; pDW104, SEQ ID NO: 75 (protein)
# chain: MEARRSANYEPNSWDYDYLLSSDTDESIEVYKDKAKKLEAEVRREINNEKAEFLTLLELIDNVQRLGLGYRFESDIRGALDRFVSSGGFDAVTKTSLHGTALSFRLLRQHGFEVSQEAFSGFKDQNGNFLENLKEDIKAILSLYEASFLALEGENILDEAKVFAISHLKELSEEKIGKELAEQVNHALELPLHRRTQRLEAVWSIEAYRKKEDANQVLLELAILDYNMIQSVYQRDLRETSRWWRRVGLATKLHFARDRLIESFYWAVGVAFEPQYSDCRNSVAKMFSFVTIIDDIYDVYGTLDELELFTDAVERWDVNAINDLPDYMKLCFLALYNTINEIAYDNLKDKGENILPYLTKAWADLCNAFLQEAKWLYNKSTPTFDDYFGNAWKSSSGPLQLVFAYFAVVQNIKKEEIENLQKYHDTISRPSHIFRLCNDLASASAEIARGETNNSVSCYMRTKGISEELATESVMNLIDETWKKMNKEKLGGSPFAKPFVETAINLARQSHCTYHNGDAHTSPDELTRKRVLSVITEPILPFERENLYFQGLEHHHHHH
# modifications: TEV site
# B6: NPC: P. alba MEA A453N L494P T536C (+) TEV; pDW108, SEQ ID NO: 83 (protein)
# chain: MEARRSANYEPNSWDYDYLLSSDTDESIEVYKDKAKKLEAEVRREINNEKAEFLTLLELIDNVQRLGLGYRFESDIRGALDRFVSSGGFDAVTKTSLHGTALSFRLLRQHGFEVSQEAFSGFKDQNGNFLENLKEDIKAILSLYEASFLALEGENILDEAKVFAISHLKELSEEKIGKELAEQVNHALELPLHRRTQRLEAVWSIEAYRKKEDANQVLLELAILDYNMIQSVYQRDLRETSRWWRRVGLATKLHFARDRLIESFYWAVGVAFEPQYSDCRNSVAKMFSFVTIIDDIYDVYGTLDELELFTDAVERWDVNAINDLPDYMKLCFLALYNTINEIAYDNLKDKGENILPYLTKAWADLCNAFLQEAKWLYNKSTPTFDDYFGNAWKSSSGPLQLVFAYFAVVQNIKKEEIENLQKYHDTISRPSHIFRLCNDLASASAEIARGETNNSVSCYMRTKGISEELATESVMNLIDETWKKMNKEKLGGSPFAKPFVETAINLARQSHCTYHNGDAHTSPDELTRKRVLSVICEPILPFERENLYFQGLEHHHHHH
# modifications: TEV site
# B7: G491S: P. alba IspS variant G491S; pDW100, strain DW398, SEQ ID NO: 67 (protein)
# chain: MEARRSANYEPNSWDYDYLLSSDTDESIEVYKDKAKKLEAEVRREINNEKAEFLTLLELIDNVQRLGLGYRFESDIRGALDRFVSSGGFDAVTKTSLHGTALSFRLLRQHGFEVSQEAFSGFKDQNGNFLENLKEDIKAILSLYEASFLALEGENILDEAKVFAISHLKELSEEKIGKELAEQVNHALELPLHRRTQRLEAVWSIEAYRKKEDANQVLLELAILDYNMIQSVYQRDLRETSRWWRRVGLATKLHFARDRLIESFYWAVGVAFEPQYSDCRNSVAKMFSFVTIIDDIYDVYGTLDELELFTDAVERWDVNAINDLPDYMKLCFLALYNTINEIAYDNLKDKGENILPYLTKAWADLCNAFLQEAKWLYNKSTPTFDDYFGNAWKSSSGPLQLVFAYFAVVQNIKKEEIENLQKYHDTISRPSHIFRLCNDLASASAEIARGETANSVSCYMRTKGISEELATESVMNLIDETWKKMNKEKLSGSLFAKPFVETAINLARQSHCTYHNGDAHTSPDELTRKRVLSVITEPILPFERENLYFQGLEHHHHHH
# B8: NS: P. alba MEA A453N G491S (+) TEV; pDW103, SEQ ID NO: 73 (protein)
# chain: MEARRSANYEPNSWDYDYLLSSDTDESIEVYKDKAKKLEAEVRREINNEKAEFLTLLELIDNVQRLGLGYRFESDIRGALDRFVSSGGFDAVTKTSLHGTALSFRLLRQHGFEVSQEAFSGFKDQNGNFLENLKEDIKAILSLYEASFLALEGENILDEAKVFAISHLKELSEEKIGKELAEQVNHALELPLHRRTQRLEAVWSIEAYRKKEDANQVLLELAILDYNMIQSVYQRDLRETSRWWRRVGLATKLHFARDRLIESFYWAVGVAFEPQYSDCRNSVAKMFSFVTIIDDIYDVYGTLDELELFTDAVERWDVNAINDLPDYMKLCFLALYNTINEIAYDNLKDKGENILPYLTKAWADLCNAFLQEAKWLYNKSTPTFDDYFGNAWKSSSGPLQLVFAYFAVVQNIKKEEIENLQKYHDTISRPSHIFRLCNDLASASAEIARGETNNSVSCYMRTKGISEELATESVMNLIDETWKKMNKEKLSGSLFAKPFVETAINLARQSHCTYHNGDAHTSPDELTRKRVLSVITEPILPFERENLYFQGLEHHHHHH
# modifications: TEV site
# Test: Specific activity measurement of purified isoprene synthase variants (4 mM DMAPP, 30 C, GC-MS headspace)
# Type: biochemical
# Details: 50 mM NaCl, 50 mM Tris pH = 8, 30° C.; for Variant S.A./WT S.A.: ratio to WT
# Experimental: 1. Initial Purification—Resuspend the pellet in 3 ml of fresh lysis buffer. Break cells by passing them through the French Press using the small cylinder. Centrifuge samples for 1 hour at 30,000×G and collect the supernatant. Retain pellet in order to test for presence of insoluble protein. Pre equilibrate 0.5 mL Ni Sepharose 6 Fast Flow resin (Amersham) in a 20 ml disposable column with 10 mL of Ni wash buffer. Add protein to column and shake for 60 min at 4 C to bind protein. Elute protein with 2.5 mL Ni elution buffer.
# 2. Buffer Exchange—Equilibrate a PD-10 column (GE Healthcare) with 25 mL of PD-10 buffer. Load protein on to column and elute with 3.5 mL of PD-10 buffer.
# 10 uL of purified enzyme was incubated with 4 mM DMAPP, 50 mM MgCl2 in a buffer containing 50 mM Tris and 50 mM NaCl (pH=8) to a final volume of 100 uL for 15 min. at 30 C in gas tight 2 mL vials. Reactions were terminated with the addition of 100 uL of […] EDTA, pH=8. Samples were analyzed by GC-MS to determine the concentration of isoprene in the headspace of the vials. All specific activity measurements were performed in triplicate.
# Protein concentration was determined by measuring the absorbance of each protein solution at 280 nm on a Helwlett Pachard 8453 UV-Vis spectrophotometer and converting the absorbance to protein concentration using the extinction coefficient as determined on the Expasy website (Gasteiger E., Hoogland C., Gattiker A., Duvaud S., Wilkins M. R., Appel R. D., Bairoch A.; Protein Identification and Analysis Tools on the ExPASy Server; (In) John M. Walker (ed): The Proteomics Protocols Handbook, Humana Press (2005). pp. 571-607). The protein concentrations of isoprene synthase variants assayed for KM and kcat determination were verified by comparative gel electrophoresis of a dilution series of each protein (FIG. 61).
molecule,measurement,value
B1,S.A.,490 ± 20 nmol/mg/min
same,Variant S.A./WT S.A.,1.0
B2,S.A.,420 ± 30 nmol/mg/min
same,Variant S.A./WT S.A.,0.9
B3,S.A.,465 ± 2 nmol/mg/min
same,Variant S.A./WT S.A.,1.0
B4,S.A.,440 ± 20 nmol/mg/min
same,Variant S.A./WT S.A.,0.9
B5,S.A.,490 ± 20 nmol/mg/min
same,Variant S.A./WT S.A.,1.0
B6,S.A.,440 ± 20 nmol/mg/min
same,Variant S.A./WT S.A.,0.9
B7,S.A.,480 ± 20 nmol/mg/min
same,Variant S.A./WT S.A.,1.0
B8,S.A.,480 ± 40 nmol/mg/min
same,Variant S.A./WT S.A.,1.0
